Assay results reported in publication PMC8533965.
Where a chain is given by its changes, count along the chain named. Names may count otherwise. Read-outs that look alike come from different tables or passages of the source.

B1: Buc amino acids 372–394 (highly conserved sequence, Buc-VBM) fused to the Venus C-terminal half (domain or fragment)
chain: SVLSPSIDELSSRDEMFSTDVED
B2: Buc-VBM (amino acids 363–400), recombinant, GST tag removed (peptide)
chain: YPQVTQERQSVLSPSIDELSSRDEMFSTDVEDLEVVPG
B3: Buc-VBM (amino acids 363–400) R384G (non-conserved control) fused to the Venus C-terminal half (domain or fragment)
chain: B2 chain with R22G
B4: Buc-VBM (amino acids 363–400) D379L fused to the Venus C-terminal half (domain or fragment)
chain: B2 chain with D17L
B5: Buc-VBM (amino acids 363–400) S389A fused to the Venus C-terminal half (domain or fragment)
chain: B2 chain with S27A
B6: Buc amino acids 363–400 fused to the Venus C-terminal half (domain or fragment)
chain: B2 chain
B7: Buc-VBM (amino acids 363–400) E386L fused to the Venus C-terminal half (domain or fragment)
chain: B2 chain with E24L
B8: Bucky ball, full length (amino acids 1–639), fused to the Venus C-terminal half (Buc-VC) (natural protein)
chain: MEGINNNSQPMGVGQPHHPVNHTRPFFYVQPPSQPYFMYQWPMNPYGHYGFPGPALHFGRPYMAPYQFMQYPGYVIPHAPMQPIDYRRINPHYPSVASYDLRVRHHFQNAGMHRETACSEVQTDPSDSVNKLIDKIESLKACELGSDKGPNNVVSSTPDVVQGEKLTRLNEDSNLEVATKECKEDPVTRPTTYSDSAYDAESSQGRLDECVFSDVLPLDSSSVHEEEEEEEKDVNEEDEPQTVADEICSQNEMSASTTSNVFCSGVQSIADPTECHDLEKLGDEQKQDIPSADAAAVIEPLISLSEDFDLPYQILRLPCNKTTTGLSLEREIDPLVYFDSPSTLLPPQNYLSSIGSAYSYSYYPQVTQERQSVLSPSIDELSSRDEMFSTDVEDLEVVPGHVYVGGGRLAEASDMPVRSRKELPSVDKTCSVCQKTCACCGSTLQDEVGMCKMAEHSHPERDEMSDQDCDYDLEAEVRSNCESPRVSKRKCCSRHALPSCGHHCAKHRHRKLLCEGQESCDLREQARVHPKGECCEEYGALAKADKRIQKGALCRPCIEQQWREGVVSDQENWASCGAKPRSWRQVTGPQDQGRTPLRRSTCKSIHQQRPRSEYNDYDETEFTYCQRGRGSMKKRGSRY
B9: Buc-CTD (amino acids 363–639) fused to the Venus C-terminal half (domain or fragment)
chain: YPQVTQERQSVLSPSIDELSSRDEMFSTDVEDLEVVPGHVYVGGGRLAEASDMPVRSRKELPSVDKTCSVCQKTCACCGSTLQDEVGMCKMAEHSHPERDEMSDQDCDYDLEAEVRSNCESPRVSKRKCCSRHALPSCGHHCAKHRHRKLLCEGQESCDLREQARVHPKGECCEEYGALAKADKRIQKGALCRPCIEQQWREGVVSDQENWASCGAKPRSWRQVTGPQDQGRTPLRRSTCKSIHQQRPRSEYNDYDETEFTYCQRGRGSMKKRGSRY

Legend:
[1] = target: zebrafish Vasa, full length (amino acids 1–715), fused to the Venus N-terminal half (zfVasa-VN) (zebrafish); assay: split reporter (BiFC, NanoBiT); BiFC with split Venus in living zebrafish embryos: Buc constructs with VC and zfVasa constructs with VN at their C-termini, mRNAs (200 ng/μL) co-injected at the one-cell stage, fluorescence imaged at 3 hpf by confocal microscopy; read-out percent of fluorescent embryos, three independent …
[2] = target: zfVasa (amino acids 227–670), recombinant, GST tag removed (zebrafish)
[3] = target: zebrafish Vasa, full length (amino acids 1–715), fused to the Venus N-terminal half (zfVasa-VN) (zebrafish); assay: split reporter (BiFC, NanoBiT); BiFC with split Venus in living zebrafish embryos: Buc constructs with VC and zfVasa constructs with VN at their C-termini, mRNAs (200 ng/μL) co-injected at the one-cell stage, fluorescence imaged at 3 hpf by confocal microscopy; read-out percent of fluorescent embryos, three independent …; remark: listed apart in the source
[4] = target: zfVasa eRecA-CTD (extended sequence at the C-terminus of RecA-CTD, amino acids 624–715) fused to the Venus N-terminal half (zebrafish); assay: as above
[5] = target: zfVasa-HC (helicase core, amino acids 278–715) fused to the Venus N-terminal half (zebrafish); assay: as above
[6] = target: zebrafish Vasa, full length (amino acids 1–715), fused to the Venus N-terminal half (zfVasa-VN) (zebrafish); assay: as above; remark: listed apart in the source
[7] = target: zfVasa RecA-CTD (amino acids 496–623) fused to the Venus N-terminal half (zebrafish); assay: as above
[8] = target: zfVasa-BBM (amino acids 600–625) fused to the Venus N-terminal half (zebrafish); assay: as above
[9] = target: zfVasa S607A (full length) fused to the Venus N-terminal half (zebrafish); assay: as above
[10] = target: zfVasa S608A (full length) fused to the Venus N-terminal half (zebrafish); assay: as above

Binder | percent of fluorescent embryos (BiFC) [1] [%] | percent of fluorescent embryos (BiFC) [3] [%] | further results
B1 | 66 |  | 
B2 |  |  | ATPase activity of 5-µM zfVasa with 2.5-mM ATP (NADH-coupled assay, absorption at 340 nm, 25 °C) on addition of 100-µM Buc-VBM, without RNA [2]: 2 fold
B3 |  | 63 | 
B4 | 38 | 36 | 
B5 |  | 43 | 
B6 | 72 | 70 | 
B7 |  | 48 | 
B8 | 82 | 79 | percent of fluorescent embryos (BiFC) [4]: 14%; percent of fluorescent embryos (BiFC) [5]: 70%; percent of fluorescent embryos (BiFC) [6]: 77%; percent of fluorescent embryos (BiFC) [7]: 64%; percent of fluorescent embryos (BiFC) [8]: 69%; percent of fluorescent embryos (BiFC) [9]: 38%; percent of fluorescent embryos (BiFC) [10]: 27%
B9 | 77 |  | 
